# Results reported in patent US20040005543, “Compositions and methods for binding agglomeration proteins” (published 2004).
# Tests used:
# [1] = target: T1, hrPrP23-144 (N-terminal portion) (Homo sapiens, UniProt P04156 P04156:23-144); assay: filter; 20 nM protein, no tRNA; conditions: tags: provided by Man-Sun Sy, Case Western; label: internal 32P
# [2] = target: hrPrP90-231 (C-terminal portion) (Homo sapiens, UniProt P04156 P04156:90-231); assay: filter; 20 nM protein; no detectable binding; conditions: tags: provided by Man-Sun Sy, Case Western, label: internal 32P
# [3] = target: T1, hrPrP23-144 (N-terminal portion); assay: filter; 20 nM protein, Buffer B with tRNA; conditions: tags: provided by Man-Sun Sy, Case Western; label: internal 32P
# [4] = target: BSA (bovine serum albumin) (UniProt P02769 P02769:25-607); assay: filter; Buffer A with 10 ng/uL tRNA; background level; conditions: tags: Ultra-pure BSA, Ambion; label: internal 32P
# lysozyme = lysozyme (UniProt P00698 P00698:19-147); assay: filter; 2 nM RNA, 20 nM protein, Buffer A with 10 ng/uL tRNA; background level; conditions: label: internal 32P
# [5] = target: T2, hrPrP23-231 (recombinant human prion protein, full length) (Homo sapiens, UniProt P04156 P04156:23-231); assay: filter; with 10 ng/uL tRNA; 250 mM NaCl, 37 C; conditions: tags: provided by Man-Sun Sy, Case Western; label: internal 32P
# [6] = target: T2, hrPrP23-231 (recombinant human prion …); assay: filter; no tRNA; 2 mM MgCl2, 250 mM NaCl, 37 C; conditions: tags: provided by Man-Sun Sy, Case Western; label: internal 32P
# [7] = target: T2, hrPrP23-231 (recombinant human prion …); assay: filter; […]; 2 mM MgCl2, 250 mM NaCl, 37 C; […]; conditions: tags: provided by Man-Sun Sy, Case Western; label: internal 32P; G4 (AP1 insert)
binder,measurement,setting,value
MNV (ssRNA) RNA: GGGUUCAUAGCCUAUUCGGCUUUUAAAGGACCUUUUUCCCUCGCGUAGCUAGCUACGCGAGGUGACCCCCCGAAGGGGGGUGCCCC,binding result,[1],binds
same,binding result,[2],no binding
RQ11+12 (ssRNA) RNA: GGGGUUUCCAACCGGAAUUUGAGGGAUGCCUAGGCAUCCCCCGUGCGUCCCUUUACGAGGGAUUGUCGACUCUAGUCGACGUCUGGGCGAAAAAUGUACGAGAGGACCUUUUCGGUACAGACGGUACCUGAGGGAUGCCUAGGCAUCCCCCGCGCCGGUUUCGGACCUCCAGUGCGUGUUACCGCACUGUCGACCC,binding result,[3],binds
same,binding result,[2],no binding
same,binding result,[4],no binding
same,binding result,lysozyme,no binding
GGGAAUUUGAGGACGAUGGUAAGUGG (ssRNA) [AP46],Kd,[5],100 nM
same,Kd,[6],14 nM
RQT157 (ssRNA) RNA: GGGGUUUCGAACCGGAAUUUGAGGGAUGCCUAGGCAUCCCCCGUGCGUCCCUUUACGAGGGAUUGUCGACUCUAGAGGAUCCGGUACCUGAGGGAUGCCUAGGCAUCCCCGCGCGCCGGUUUCGGACCUCCAGUGCGUGUUACCGCACUGUCGACCC,Kd,[6],56 nM
MNV:AP1 (PrP-Amp) (ssRNA) RNA: GGGUUCAUAGCCUAUUCGGCUUCGCGCAUGGGAAUUUGAGGGACGAUGGGGAAGUGGGAGCGCGUUUUAAAGGACCUUUUUCCCUCGCGUAGCUAGCUACGCGAGGUGACCCCCCGAAGGGGGGUGCCCC,binding result,[2]; G4 (AP1 insert),no binding
same,Kd,[7],3.8 nM
